# Patent US20210205409A1, “METHOD FOR THE TREATMENT OF HYPOXIC-ISCHEMIC ENCEPHALOPATHY IN NEWBORNS” (UNIVERSITEIT MAASTRICHT, priority 2018, published 2021)
# B1: Annexin A1 (protein, UniProt P04083 2-346, looked up)
# Annexin A1: AMVSEFLKQAWFIENEEQEYVQTVKSSKGGPGSAVSPYPTFNPSSDVAALHKAIMVKGVDEATIIDILTKRNNAQRQQIKAAYLQETGKPLDETLKKALTGHLEEVVLALLKTPAQFDADELRAAMKGLGTDEDTLIEILASRTNKEIRDINRVYREELKRDLAKDITSDTSGDFRNALLSLAKGDRSEDFGVNEDLADSDARALYEAGERRKGTDVNVFNTILTTRSYPQLRRVFQKYTKYSKHDMNKVLDLELKGDIEKCLTAIVKCATSKPAFFAEKLHQAMKGVGTRHKALIRIMVSRSEIDMNDIKAFYQKMYGISLCQAILDETKGDYEKILVALCGGN
# notes: recombinant Annexin A1 protein, preferably of human origin, obtained commercially
# Test system: primary fetal endothelial cells (ECs) isolated from rat brains
# Assay: Trans-endothelial electrical resistance (TEER) of endothelial cell monolayer after oxygen glucose deprivation (OGD)
# Type: cell-based
# Experimental: To assess whether the effects on the BBB integrity are mediated by Annexin A1, we used a recognized model for BBB integrity of primary fetal endothelial cells (ECs) isolated from rat brains at postnatal day 3.
# A cellular monolayer of endothelial cells (ECs) was cultured on semipermeable filter inserts (Transwell, 3460 Corning). Trans-endothelial electrical resistance (TEER) was measured as an established quantitative readout for barrier integrity as described before (Srinivasan et al., J. Lab Autom. 2015 (2) 107-126) using an Epithelial Voltohmmeter (EVOM2) with two chopstick electrodes, each containing a silver-silver chloride pellet for measuring voltage and a silver pellet for passing current. Measurements of the resistance in ohm (Ω) across the cell layer were made on the semipermeable membrane by placing one electrode in the upper compartment and the other electrode in the lower compartment. Measurements were performed in duplicate per insert and consistently conducted for several days, 30 minutes after culture media was changed and temperature was kept at 37° C. before and between all measurements. […]
# Subsequently TEER was measured in all groups at 1 hour, 3 hours, 6 hours, 12 hours and 24 after normoxia/OGD. […]
# At 0 hour, baseline TEER measurements were taken before initiation of OGD. […] TEER in ohms was measured 3 h, 6 h, 12 h and 24 h after treatment. […]
molecule,measurement,setting,value
B1,TEER plateau value,"fetal rat brain ECs on Transwell, 4 h OGD then treatment with Annexin A1 3 μM, plateau from 12 h onwards, baseline approx. 150 ohms per insert",130 ohms
same,effect on endothelial resistance / barrier integrity following OGD,"fetal rat brain ECs, 4 h OGD, Annexin A1 3 μM",restores the endothelial resistance and/or barrier integrity
